How the values were obtained:
c-Jun = assay: immunoprecipitation and densitometry of c-Jun protein in stable JB6 transfectants; type: cell-based, mouse; details: 10 ng/ml, fifteen hours, TAM67 or Neo-only transfectants
Protocol: Three TAM67 clonal transfectants (M4, M3, M6) and one neo-only clonal transfectant (N1) were treated for fifteen hours with either 10 ng/ml TPA (T), 10 ng/ml EGF (E), or 0.1% DMSO (D) prior to metabolic labelling for two hours with 0.2 mCi/ml ^35S -methionine (Amersham, Rockford, Ill.) (Sun, Y. et al. (1993) Mol. Carcinogenesis, 8: 49-57). Cellular lysates were then collected and immunoprecipitations using polyclonal rabbit c-jun antibody (AB-1 antibody, Oncogene Science) were carried out overnite at 4° C. (Sun et al. (1993)). These immunoprecipitates were then analyzed by electrophoresis on 12.5% SDS polyacrylamide gels and these gels are shown in FIG. 4.

AP-1 = assay: CAT assay with stromelysin promoter reporter P750TRCAT (AP-1 dependent) in JB6 P+ Cl 41 cells; type: cell-based, mouse; details: 10 ng/ml, eight hours
Description: The plasmid constructs used in the following examples were as follows: P750TRCAT is a CAT reporter construct containing 750 bp of the rat stromelysin promoter driving the heterogolous gene chloramphenicol acetyl-transferase (CAT). This construct contains an AP-1 binding sequence at position −70 (Matrisian, L. M. et al. (1991) Am. J. Medic. Sci., 302: 157-162, Kerr, L. D. et al. (1988) Science., 242: 1424-1427, McDonnell, S. E. et al. (1990) Mol. Cell. Biol. 105 4284-4293). The mTRE-CAT reporter is a site-directed mutant with 2 point mutations in the AP-1 site (Matrisian, L. M. et al. (1991) Am. J. Medic. Sci., 302: 157-162) and the mPEA3-CAT reporter is a site-directed mutant in which point mutations in each of the PEA3 sites at position −208 to −200 and −191 to −199 of the stromelysin promoter were introduced using a protocol provided with the site-directed mutagenesis kit of Amersham Corp. (Arlington Heights, Ill.) and an oligonucleotide having SEQ ID NO.:1 GCAAGAAGCATTTCTTGG.
In brief, JB6 Cl 41 (P^+) cells transfected for 4-5 hours using a standard calcium phosphate transfection procedure (Sambrook, J. et al. (1989) “Molecular Cloning, A Laboratory Manual” Cold Spring Harbor Laboratory Press, Cold Spring Harbor, N.Y.) with 10 μg of one of three CAT reporter plasmid DNAs, P750TRCAT, mTRE-CAT or mPEA3-CAT and 10 μg of sheared genomic DNA isolated from Cl 41 cells were then changed to medium containing 2% fetal calf serum and twenty-four to forty-two hours later, were treated with either 0.1% of DMSO, 10 ng/ml of TPA or 10 ng/ml EGF for eight hours prior to preparation of total cell extracts. CAT enzyme activity was assayed using a diffusion-based CAT assay according to the protocol provided by the manufacturers (New England Nuclear, Del.). The results are expressed as the rate of accumulation of [^14C]-acetylated product relative to solvent controls (DMSO).
In order to determine whether TPA-induced CAT activity in JB6 P^+ cells is capable of being abolished, TPA induced CAT activity was measured in the presence of the known AP-1 inhibitors retinoic acid (RA) and fluocinolone acetonide (FA). In brief, JB6 P^+ Cl 41 cells were transfected with 10 μg of P750TRCAT and 10 μg of sheared genomic DNA from Cl 41 cells as in Example 1. […] As before, the results are expressed as the rate of accumulation of ^14C-acetylated product relative to solvent controls. […]

B1: epidermal growth factor (protein, UniProt P01133 23-1207, looked up)
Pro-epidermal growth factor: PQHWSCPEGTLAGNGNSTCVGPAPFLIFSHGNSIFRIDTEGTNYEQLVVDAGVSVIMDFHYNEKRIYWVDLERQLLQRVFLNGSRQERVCNIEKNVSGMAINWINEEVIWSNQQEGIITVTDMKGNNSHILLSALKYPANVAVDPVERFIFWSSEVAGSLYRADLDGVGVKALLETSEKITAVSLDVLDKRLFWIQYNREGSNSLICSCDYDGGSVHISKHPTQHNLFAMSLFGDRIFYSTWKMKTIWIANKHTGKDMVRINLHSSFVPLGELKVVHPLAQPKAEDDTWEPEQKLCKLRKGNCSSTVCGQDLQSHLCMCAEGYALSRDRKYCEDVNECAFWNHGCTLGCKNTPGSYYCTCPVGFVLLPDGKRCHQLVSCPRNVSECSHDCVLTSEGPLCFCPEGSVLERDGKTCSGCSSPDNGGCSQLCVPLSPVSWECDCFPGYDLQLDEKSCAASGPQPFLLFANSQDIRHMHFDGTDYGTLLSQQMGMVYALDHDPVENKIYFAHTALKWIERANMDGSQRERLIEEGVDVPEGLAVDWIGRRFYWTDRGKSLIGRSDLNGKRSKIITKENISQPRGIAVHPMAKRLFWTDTGINPRIESSSLQGLGRLVIASSDLIWPSGITIDFLTDKLYWCDAKQSVIEMANLDGSKRRRLTQNDVGHPFAVAVFEDYVWFSDWAMPSVMRVNKRTGKDRVRLQGSMLKPSSLVVVHPLAKPGADPCLYQNGGCEHICKKRLGTAWCSCREGFMKASDGKTCLALDGHQLLAGGEVDLKNQVTPLDILSKTRVSEDNITESQHMLVAEIMVSDQDDCAPVGCSMYARCISEGEDATCQCLKGFAGDGKLCSDIDECEMGVPVCPPASSKCINTEGGYVCRCSEGYQGDGIHCLDIDECQLGEHSCGENASCTNTEGGYTCMCAGRLSEPGLICPDSTPPPHLREDDHHYSVRNSDSECPLSHDGYCLHDGVCMYIEALDKYACNCVVGYIGERCQYRDLKWWELRHAGHGQQQKVIVVAVCVVVLVMLLLLSLWGAHYYRTQKLLSKNPKNPYEESSRDVRSRRPADTEDGMSSCPQPWFVVIKEHQDLKNGGQPVAGEDGQAADGSMQPTSWRQEPQLCGMGTEQGCWIPVSSDKGSCPQVMERSFHMPSYGTQTLEGGVEKPHSLLSANPLWQQRALDPPHQMELTQ
modifications: Pro-epidermal growth factor
notes: tumor promoter, peptide growth factor
c-Jun protein levels (43 kDa band, densitometric analysis) (c-Jun): no significant differences
increase in AP-1 dependent CAT activity in neo-only transfectants (AP-1; N1-N3 transfectants, P750TRCAT): three to four fold increases
CAT activity relative to uninduced cells, P750TRCAT reporter (AP-1; P750TRCAT-transfected JB6 P+ Cl 41 cells): about 2 fold
CAT activity relative to uninduced cells, mPEA3-CAT reporter (AP-1; mPEA3-CAT-transfected JB6 P+ Cl 41 cells (PEA3 sites mutated)): about 2 fold
inducibility of CAT activity, mTRE-CAT reporter (AP-1; mTRE-CAT-transfected cells (AP-1 binding site mutated)): loss of inducibility
